Patent US11840557B2, “Wnt7 variants capable of activating g-protein coupled receptor (Gpr)124/Reck/frizzled/lipoprotein receptor-related protein (LRP)-mediated Wnt signaling” (UNIVERSITÉ LIBRE DE BRUXELLES, priority 2018, dated 2023)

Legend:
all 10 Fz genes = assay: STF luciferase assay after co-transfection with all 10 Fz genes, no Gpr124/Reck; format: cell-based; settings: in the absence of Gpr124/Reck
Description: Cells were plated into 96-well plates and transfected after 24 h in triplicate with Lipofectamine 2000 (Invitrogen, Carlsbad, Calif.). The amount of plasmid DNA transfected per well was optimized for each expression vector: Renilla luciferase (0.5 ng), Wnt (20 ng), Fz (5 ng), LRP (2.5 ng), Gpr124 (10 ng), Reck (10 ng) unless otherwise indicated. The total amount of DNA was adjusted to 100 ng per well with the empty pCS2 vector. Cells were harvested in passive lysis buffer (E1960, Promega, Wisconsin) and the activities of the Firefly and Renilla luciferases were measured sequentially using the Dual-Luciferase Reporter Assay system (E1960, Promega, Madison, Wis.) 48 h post-transfection.

zebrafish zygote = format: in vivo, Danio rerio; settings: injection in zygote, 3 dpf larvae
Description: (§1) The following splice-blocking morpholino (MOs) (GeneTools, Eugene, OR) were injected into embryos at the one-cell stage: wnt7aa ([…], 6 ng) (SEQ ID NO.: 123). Synthetic mRNAs were transcribed from pCS2 plasmids after NotI digestion using the mMessage mMachine SP6 Kit (Ambion, Carlsbad, CA) and injected into one-cell stage zebrafish embryo. For Xenopus laevis microinjection, 15 pg of wnt7a or wnt7a^K190A or wnt7a^1-278 mRNA were injected into one ventral blastomere of the four-cell stage embryo.
(§2) zebrafish embryos were imaged with an LSM710 confocal microscope and images were processed in ImageJ. Images of zebrafish development phenotypes were taken on Leica M165 FC. Xenopus larvae were imaged with an Olympus SZX16.

[1] = tested on: Wnt7aa^−/− mutant zebrafish; assay: Transgenic endothelial expression (kdrl promoter) in Wnt7aa−/− zebrafish: hindbrain CtAs and GLUT1 staining; format: in vivo, Danio rerio; settings: 60 hpf embryos
Description: (A) Dorsal views of the cerebral vasculatures of 60 hpf WT or Wnt7aa^−/− Tg(kdrl:EGFP) embryos. In Wnt7a^−/− mutants, the intracerebral CtAs are lacking. Wnt7, Wnt7a^K190A or Wnt7a^1-278 were transiently expressed in the endothelium of Wnt7aa^−/− embryos under the control of an endothelial-specific kdrl (Vascular endothelial growth factor receptor kdr-like) promoter. The Wnt7 ligands were expressed as a biscistronic construct with BFP (Blue Fluorescent Protein) used as transgenesis marker. In contrast to uninjected embryos, Wnt7, Wnt7a^K190A or Wnt7a^1-278 restore hindbrain CtAs formation in Wnt7aa^−/− mutants as quantified in (B). (C) Anti-GLUT1 staining of the CtAs after transgenic expression of Wnt7, Wnt7a^K190A and Wnt7a^1-278 in 60 hpf Wnt7aa^−/− embryos. Transgenic expression was achieved as in (A).
Mouse Wnt7, Wnt7a^K190A and Wnt7a^1-278 were transiently expressed in the endothelium of Wnt7aa^−/− embryos under the control of an endothelial-specific kdrl (Vascular endothelial growth factor receptor kdr-like) promoter. The Wnt7 ligands were expressed as a biscistronic construct with BFP (Blue Fluorescent Protein) as transgenesis marker.

wnt7aa morphants = assay: Trunk DRG rescue in wnt7aa morphant zebrafish larvae; format: in vivo, Danio rerio; settings: 100 pg mRNA injection, 72 hpf
Description: Zebrafish (Danio rerio) were raised and handled under standard conditions following the rules of the State of Belgium (protocol approval number: CEBEA-IBMM-2017-22:65). The following line was used: Tg(−17.0neurog1:EGFP)^w61 (McGraw et al., J. Neurosci 28(47):12558-69 (2008)).
as §1, §2

B1: Wnt7a^K190A: single-residue variant of full-length mWnt7a (precursor numbering); Gpr124/Reck-selective agonist (protein)
chain: LGASIICNKIPGLAPRQRAICQSRPDAIIVIGEGSQMGLDECQFQFRNGRWNCSALGERTVFGKELKVGSREAAFTYAIIAAGVAHAITAACTQGNLSDCGCDKEKQGQYHRDEGWKWGGCSADIRYGIGFAKVFVDAREIKQNARTLMNLHNNEAGRAILEENMKLECKCHGVSGSCTTKTCWTTLPQFRELGYVLKDKYNEAVHVEPVRASRNKRPTFLKIKKPLSYRKPMDTDLVYIEKSPNYCEEDPVTGSVGTQGRACNKTAPQASGCDLMCCGRGYNTHQYARVWQCNCKFHWCCYVKCNTCSERTEMYTCK
modifications: human Wnt7a variant K159A
- signaling through any Fz (all 10 Fz genes): failed to signal through any Fz
- mRNA dose well tolerated without posteriorizing or gross anatomical alterations (zebrafish zygote): ≤ 100 pg
- blood-brain barrier (GLUT1 expression) ([1]; anti-GLUT1 staining of CtAs): restored blood-brain barrier
- brain angiogenesis / hindbrain CtAs formation ([1]; transient endothelial expression): triggered GPR124/RECK-dependent brain angiogenesis
- DRG rescue (wnt7aa morphants): significant DRG rescues
